Assay results taken from patent US20240327497A1.
Positions count from the first letter of the chain named. Names and notes keep the numbering of the source.

B1: anti-NGF canine IgGB antibody, Fc variant A426Y + N434R (antibody, part only; not given: anti-NGF variable domains and light chain, not shown: another chain or arm of the molecule; small tags and cut ends)
Fc: APEMLGGPSVFIFPPKPKDTLLIARTPEVTCVVVDLDPEDPEVQISWFVDGKQMQTAKTQPREEQFNGTYRVVSVLPIGHQDWLKGKQFTCKVNNKALPSPIERTISKARGQAHQPSVYVLPPSREELSKNTVSLTCLIKDFFPPDIDVEWQSNGQQEPESKYRTTPPQLDEDGSYFLYSKLSVDKSRWQRGDTFICYVMHEALHRHYTQESLSHSPGK
B2: anti-NGF canine IgGB antibody, Fc variant A426H + T286L (antibody, part only; not given: Anti-NGF variable domains, not shown: another chain or arm of the molecule; small tags and cut ends)
Fc: B1 Fc with T56L, Y198H, R206N
B3: anti-NGF canine IgGB antibody, Fc variant A426H + T286Y (antibody, part only; not given: anti-NGF variable domains and light chain, not shown: another chain or arm of the molecule; small tags and cut ends)
Fc: B1 Fc with T56Y, Y198H, R206N
B4: anti-NGF canine IgGB antibody, Fc variant A426H + D312P (antibody, part only; not given: Anti-NGF variable domains, not shown: another chain or arm of the molecule; small tags and cut ends)
Fc: B1 Fc with D82P, Y198H, R206N
B5: anti-NGF canine IgGB antibody, Fc variant N434R (antibody, part only; not given: Anti-NGF variable domains, not shown: another chain or arm of the molecule)
Fc: B1 Fc with Y198A
B6: anti-NGF canine IgGB antibody, Fc variant N434R + T286L (antibody, part only; not given: Anti-NGF variable domains, not shown: another chain or arm of the molecule)
Fc: B1 Fc with T56L, Y198A
B7: anti-NGF canine IgGB antibody, Fc variant N434R + T286Y (antibody, part only; not given: anti-NGF variable domains and light chain, not shown: another chain or arm of the molecule)
Fc: B1 Fc with T56Y, Y198A
B8: anti-NGF canine IgGB antibody, Fc variant N434R + D312P (antibody, part only; not given: anti-NGF variable domains and light chain, not shown: another chain or arm of the molecule)
Fc: B1 Fc with D82P, Y198A
B9: anti-NGF canine IgGB antibody, Fc variant N434R + Y436H (antibody, part only; not given: Anti-NGF variable domains, not shown: another chain or arm of the molecule)
Fc: B1 Fc with Y198A, Y208H
B10: anti-NGF canine IgGB antibody, Fc variant N434Y (antibody, part only; not given: Anti-NGF variable domains, not shown: another chain or arm of the molecule)
Fc: B1 Fc with Y198A, R206Y
B11: anti-NGF canine IgGB antibody, Fc variant A426Y (antibody, part only; not given: Anti-NGF variable domains, not shown: another chain or arm of the molecule; small tags and cut ends)
Fc: B1 Fc with R206N
B12: anti-NGF canine IgGB antibody, Fc variant A426Y + Y436H (antibody, part only; not given: anti-NGF variable domains and light chain, not shown: another chain or arm of the molecule; small tags and cut ends)
Fc: B1 Fc with R206N, Y208H
B13: anti-NGF canine IgGB antibody, Fc variant A426H (antibody, part only; not given: Anti-NGF variable domains, not shown: another chain or arm of the molecule; small tags and cut ends)
Fc: B1 Fc with Y198H, R206N
B14: anti-NGF canine IgGB antibody, Fc variant A426H + Y436H (antibody, part only; not given: anti-NGF variable domains and light chain, not shown: another chain or arm of the molecule; small tags and cut ends)
Fc: B1 Fc with Y198H, R206N, Y208H
B15: anti-NGF canine IgGB antibody, Fc variant A426Y + T286L + Y436H (antibody, part only; not given: anti-NGF variable domains and light chain, not shown: another chain or arm of the molecule)
Fc: B1 Fc with T56L, R206N, Y208H
B16: canine IgGA antibody with wild-type IgGA Fc and the variable domain of Gearing et al. 2013 (antibody, part only; not given: variable domains and light chain, not shown: another chain or arm of the molecule; small tags and cut ends)
Fc: VPEPLGGPSVLIFPPKPKDILRITRTPEVTCVVLDLGREDPEVQISWFVDGKEVHTAKTQSREQQFNGTYRVVSVLPIEHQDWLTGKEFKCRVNHIDLPSPIERTISKARGRAHKPSVYVLPPSPKELSSSDTVSITCLIKDFYPPDIDVEWQSNGQQEPERKHRMTPPQLDEDGSYFLYSKLSVDKSRWQQGDPFTCAVMHETLQNHYTDLSLSHSPGK
B17: canine IgGA antibody, Fc variant A426Y, variable domain of Gearing et al. 2013 (antibody, part only; not given: Variable domains, not shown: another chain or arm of the molecule; small tags and cut ends)
Fc: B16 Fc with A199Y
B18: canine IgGA antibody, Fc variant A426H, variable domain of Gearing et al. 2013 (antibody, part only; not given: Variable domains, not shown: another chain or arm of the molecule; small tags and cut ends)
Fc: B16 Fc with A199H

Molecular target: canine FcRn (FcRn large subunit with canine beta-2-microglobulin) (canine)
Test: SPR pH 7.4, FcRn coupled at high density, IgG 400 nM

Binder | Kd [nM] | koff [s⁻¹] | kon [M⁻¹ s⁻¹]
B1 | 129 |  | 
B2 | 1600 | 0.13 | 81200
B3 | 940 | 0.128 | 136000
B4 | 722 | 0.156 | 217000
B5 | 234 |  | 8.25e+08
B6 | 134 |  | 
B7 | 81.2 |  | 3.4e+08
B8 | 104 |  | 4.95e+08
B9 | 382 | 0.255 | 666000
B10 | 80.2 | 0.23 | 2.87e+06

Molecular target: canine FcRn (FcRn large subunit with canine beta-2-microglobulin) (canine)
Test: SPR pH 5.9, IgG coupled to C1 chip, 1:1 kinetic fit

Binder | Kd [nM] | koff [s⁻¹] | kon [M⁻¹ s⁻¹]
B11 | 129 | 0.113 | 878000
B12 | 57.7 | 0.0608 | 1.06e+06
B13 | 115 | 0.142 | 1.24e+06
B2 | 35.8 | 0.0417 | 1.16e+06
B3 | 21.3 | 0.0286 | 1.34e+06
B4 | 40.5 | 0.0532 | 1.31e+06
B14 | 161 | 0.13 | 808000
B15 | 7.26 | 0.0412 | 5.67e+06

Molecular target: canine FcRn (FcRn large subunit with canine beta-2-microglobulin) (canine)
Test: SPR pH 6.0, IgG coupled to CM5, FcRn 50-800 nM

Binder | Kd [nM] | koff [s⁻¹] | kon [M⁻¹ s⁻¹]
B16 | 5970 | 0.187 | 31400
B17 | 767 | 0.0375 | 48900
B18 | 1430 | 0.0591 | 41400
B11 | 1130 | 0.134 | 119000
B1 | 288 | 0.0591 | 206000
B12 | 507 | 0.0777 | 153000
B13 | 1040 | 0.124 | 119000
B2 | 464 | 0.069 | 149000
B3 | 255 | 0.0409 | 160000
B4 | 376 | 0.0547 | 145000
B14 | 2270 | 0.202 | 88700
B5 | 497 | 0.107 | 216000
B6 | 173 | 0.031 | 180000
B7 | 93.7 | 0.0221 | 236000
B8 | 197 | 0.048 | 244000
B9 | 320 | 0.0838 | 262000
B10 | 70.8 | 0.0181 | 255000
